The subject of the data set is btGDF83.1 TALEN pair (synthetic (TALE-FokI)). As to the kind of experiment: cell_activity. The note with it: SURVEYOR; bovine fibroblasts; active at 30 and 37 C; pair called btGDF8.1 and btGDF83.1.

In US20140123330 one finds activity (% chromosomes cleaved) data, which are given here for one substance.

bovine GDF8 exon 3 target: the activity (% chromosomes cleaved) is less than 16.
